# Source: patent US20050147555A1 (BRACCO SUISSE, published 2005)
# Read-outs that look alike come from different tables or passages of the source. Positions of bridges follow the written chain, without caps; N, C: chain ends. Groups on a side chain read outwards from the residue. Primed or numbered codes have the meaning given here. Chains are numbered I, II in the order given. No end group written: not given here. *: point of attachment. ivDde′ = 1-(4,4-dimethyl-2,6-dioxocyclohex-1-ylidene)-3-methylbutyl, CC(C)CC(=C1C(=O)CC(C)(C)CC1=O)*; Biotin = O=C1N[C@H]2[C@H](CS[C@H]2CCCCC(=O)*)N1; AEEA = NCCOCCOCC(=O)O
# B1: D1 (peptide)
# peptide 1: AGPTWCEDDWYYCWLFGTGGGK
# peptide 2: VCWEDSWGGEVCFRYDPGGGK
# modifications: not fully specified; N-acetyl; C2-C12 disulfide; C-terminal Lys amide (printed as NH(CH2)4-(S)-CH(..NH)CONH2), side chain joined to linker; N-acetyl; C6-C13 disulfide; C-terminal amide; Lys22 side chain bears branch/linker
# notes: J = 8-amino-3,6-dioxaoctanoyl; also called DI
# B2: P12-XB (peptide)
# peptide: Ac-AGPTWCEDDWYYCWLFGTGGGK([AEEA-AEEA-Biotin])-NH2
# modifications: disulfide 6-13
# SMILES: CC(=O)N[C@@H](C)C(=O)NCC(=O)N1CCC[C@H]1C(=O)N[C@H](C(=O)N[C@@H](Cc1c[nH]c2ccccc12)C(=O)N[C@H]1CSSC[C@@H](C(=O)N[C@@H](Cc2c[nH]c3ccccc23)C(=O)N[C@@H](CC(C)C)C(=O)N[C@@H](Cc2ccccc2)C(=O)NCC(=O)N[C@H](C(=O)NCC(=O)NCC(=O)NCC(=O)N[C@@H](CCCCNC(=O)COCCOCCNC(=O)COCCOCCNC(=O)CCCC[C@@H]2SC[C@@H]3NC(=O)N[C@@H]32)C(N)=O)[C@@H](C)O)NC(=O)[C@H](Cc2ccc(O)cc2)NC(=O)[C@H](Cc2ccc(O)cc2)NC(=O)[C@H](Cc2c[nH]c3ccccc23)NC(=O)[C@H](CC(=O)O)NC(=O)[C@H](CC(=O)O)NC(=O)[C@H](CCC(=O)O)NC1=O)[C@@H](C)O
# notes: Free monomeric peptide
# B3: D24 (peptide)
# peptide 1: AGPTWCEDDWYYCWLFGTGGGK
# peptide 2: VCWEDSWGGEVCFRYDPGGGK
# modifications: not fully specified; N-acetyl; C2-C12 disulfide; C-terminal amide; Lys21 side chain joined to JJ-glutaryl linker; N-acetyl; C6-C13 disulfide; C-terminal amide; Lys22 side chain bears SATA-JJ-Lys branch
# B4: D17 (peptide)
# peptide 1: AQDWYYDEILGRGGRGGRGGK
# peptide 2: VCWEDSWGGEVCFRYDPGGGK
# modifications: not fully specified; N-acetyl; C2-C12 disulfide; C-terminal amide; Lys21 side chain joined to JJ-glutaryl linker; N-acetyl; J (8-amino-3,6-dioxaoctanoyl) between Leu10 and the next Gly; C-terminal Lys side chain bears the branching Lys; C-terminal amide
# B5: D2 (peptide)
# peptide 1: AGPTWCEDDWYYCWLFGTGGGK
# peptide 2: AGPTWCEDDWYYCWLFGTK
# modifications: not fully specified; N-acetyl; C6-C13 disulfide; J (8-amino-3,6-dioxaoctanoyl) between Thr18 and the C-terminal Lys amide, whose side chain is joined to the linker; N-acetyl; C6-C13 disulfide; C-terminal amide; Lys22 side chain bears branch/linker
# B6: D3 (peptide)
# peptide 1: VCWEDSWGGEVCFRYDPGGGK
# peptide 2: VCWEDSWGGEVCFRYDPGGGK
# modifications: not fully specified; N-acetyl; C2-C12 disulfide; C-terminal Lys amide, side chain joined to linker; N-acetyl; C2-C12 disulfide; C-terminal amide; Lys21 side chain bears Biotin-JJK branch and linker
# B7: 125I-labeled D5 (peptide)
# peptide 1: VCWEDSWGGEVCFRYDPGGGK
# peptide 2: AGPTWCEDDWYYCWLFGTGGGK
# modifications: not fully specified; N-acetyl; C6-C13 disulfide; C-terminal Lys amide, side chain carries the branching Lys; 125I Bolton-Hunter label on the free amine; N-acetyl; C2-C12 disulfide; C-terminal amide; Lys21 side chain joined to JJ-glutaryl linker
# B8: PG-1 (peptide)
# peptide: Ac-ERVTTCWPGEYGGVECYSVAY-NH2
# modifications: not fully specified (bridges); printed as Ac-ERVTTCWPGEYGGVECYSVAY—NH2; cysteine pairing not given here
# B9: D23 (peptide)
# P12-derived peptide: Ac-AGPTWCEDDWYYCWLFGTGGGK-NH2
# truncated P6-derived peptide: Ac-VCWEDSWGGEVCFRYDPGGGK-NH2
# modifications: disulfide I:6-I:13, II:2-II:12; not fully specified (bridges)
# notes: Free, not on microbubbles (the list holds only the conjugate m37); The text says only 'corresponding free' dimeric peptide; also called free dimer
# B10: P12 (peptide)
# peptide: AGPTWCEDDWYYCWLFGT
# modifications: disulfide 6-13
# notes: the list holds only the microbubble conjugate m56 and other P12 derivatives
# B11: 99mTc-labeled D18 (peptide)
# peptide 1: Ac-APGTWCDYDWEYCWLGTFGGGK-NH2
# peptide 2: Ac-GVDFRCEWSDWGEVGCRSPDYGGGK-NH2
# modifications: disulfide I:6-I:13, II:6-II:16; not fully specified (some residues, bridges); printed as Ac-APGTWC*DYDWEYC*WLGTFGGGK{PnAO6-Glut-K[Ac-GVDFRC*EWSDWGEVGC*RSPDYGGGK(JJ-Glut)-NH2]}—NH2; also: 99mTc complex on PnAO6
# notes: also called scrambled derivative of D10
# B12: P34-L (peptide)
# peptide: Ac-AGPTWKEDDWYYEWLFGTGGGK-NH2
# modifications: lactam 6-13
# SMILES: CC(=O)N[C@@H](C)C(=O)NCC(=O)N1CCC[C@H]1C(=O)N[C@H](C(=O)N[C@@H](Cc1c[nH]c2ccccc12)C(=O)N[C@H]1CCCCNC(=O)CC[C@@H](C(=O)N[C@@H](Cc2c[nH]c3ccccc23)C(=O)N[C@@H](CC(C)C)C(=O)N[C@@H](Cc2ccccc2)C(=O)NCC(=O)N[C@H](C(=O)NCC(=O)NCC(=O)NCC(=O)N[C@@H](CCCCN)C(N)=O)[C@@H](C)O)NC(=O)[C@H](Cc2ccc(O)cc2)NC(=O)[C@H](Cc2ccc(O)cc2)NC(=O)[C@H](Cc2c[nH]c3ccccc23)NC(=O)[C@H](CC(=O)O)NC(=O)[C@H](CC(=O)O)NC(=O)[C@H](CCC(=O)O)NC1=O)[C@@H](C)O
# notes: also called lactam analog of P12-G
# Columns and labels:
# [1] = target: T1, KDR (VEGFR-2, Flk-1), full-length receptor on cells (human, UniProt P35968 20-1356); test: cell-based or functional assay
# T1 sequence (P35968 20-1356): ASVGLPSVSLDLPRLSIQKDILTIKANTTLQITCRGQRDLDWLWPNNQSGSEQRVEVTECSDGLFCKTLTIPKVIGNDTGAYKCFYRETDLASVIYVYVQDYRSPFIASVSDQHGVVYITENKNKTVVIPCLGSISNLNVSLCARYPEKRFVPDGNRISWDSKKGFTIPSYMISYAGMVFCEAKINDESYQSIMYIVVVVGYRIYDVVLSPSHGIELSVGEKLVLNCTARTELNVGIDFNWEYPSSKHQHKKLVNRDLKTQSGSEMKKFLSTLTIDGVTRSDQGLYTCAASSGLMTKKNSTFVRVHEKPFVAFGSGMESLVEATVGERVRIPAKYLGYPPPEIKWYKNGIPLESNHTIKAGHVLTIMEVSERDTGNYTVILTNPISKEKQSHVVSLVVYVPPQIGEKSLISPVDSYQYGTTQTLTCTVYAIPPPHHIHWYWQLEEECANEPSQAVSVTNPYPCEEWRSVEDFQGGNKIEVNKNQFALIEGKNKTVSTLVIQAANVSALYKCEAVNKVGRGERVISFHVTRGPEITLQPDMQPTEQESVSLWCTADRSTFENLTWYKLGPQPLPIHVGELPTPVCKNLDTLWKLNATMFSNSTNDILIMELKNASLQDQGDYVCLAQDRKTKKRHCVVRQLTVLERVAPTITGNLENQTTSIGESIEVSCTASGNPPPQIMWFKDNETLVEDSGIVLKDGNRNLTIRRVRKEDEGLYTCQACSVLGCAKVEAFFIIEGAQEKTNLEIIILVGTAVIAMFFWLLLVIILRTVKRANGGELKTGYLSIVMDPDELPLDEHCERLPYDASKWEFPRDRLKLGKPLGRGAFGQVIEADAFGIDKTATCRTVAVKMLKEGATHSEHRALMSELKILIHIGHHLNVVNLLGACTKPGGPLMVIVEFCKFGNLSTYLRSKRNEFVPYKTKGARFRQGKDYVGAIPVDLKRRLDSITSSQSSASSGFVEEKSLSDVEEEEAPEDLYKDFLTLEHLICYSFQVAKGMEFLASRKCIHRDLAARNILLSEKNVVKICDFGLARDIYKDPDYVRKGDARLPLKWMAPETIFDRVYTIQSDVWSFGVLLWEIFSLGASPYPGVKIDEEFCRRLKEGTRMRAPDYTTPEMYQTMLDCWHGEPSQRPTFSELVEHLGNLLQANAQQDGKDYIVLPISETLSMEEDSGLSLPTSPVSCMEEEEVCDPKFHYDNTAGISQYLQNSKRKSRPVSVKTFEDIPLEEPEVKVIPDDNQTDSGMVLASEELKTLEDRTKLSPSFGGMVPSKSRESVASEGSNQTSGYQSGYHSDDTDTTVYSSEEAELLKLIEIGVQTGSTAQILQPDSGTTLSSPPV
# [2] = target: T1, KDR (VEGFR-2, Flk-1), full-length …; test: competition with 125I-VEGF on KDR-transfected 293H cells
# Protocol: Cells were used 24 h after transfection, and to prepare the cells for the assay, they were washed 3 times with room temperature M199 medium and placed in the refrigerator. […] Each dilution was added to three separate wells of mock and KDR transfected cells. After incubating at 4° C. for 2 h, the plates were washed 5 times with cold binding buffer, gently blotted dry and checked under a microscope for cell loss. 100 μL of solubilizing solution (2% Triton X-100, 10% Glycerol, 0.1% BSA) was added to each well and the plates were incubated at room temperature for 30 minutes. The solubilizing solution in each well was mixed by pipeting up and down, and transferred to 1.2 mL tubes. Each well was washed twice with 100 μL of solubilizing solution and the washes were added to the corresponding 1.2 mL tube.
# [3] = target: T1, KDR (VEGFR-2, Flk-1), full-length …; test: competition with 125I-labeled VEGF for binding to KDR-transfected 293H cells, % inhibition of specific binding
# Description: (§1) After washing the cells, the bound radioactivity was quantitated on a gamma counter.
# [4] = target: T1, KDR (VEGFR-2, Flk-1), full-length …; test: binding of the 125I-labeled dimer to KDR- and mock-transfected 293H cells with and without 40% mouse serum, CPM bound
# Protocol: Binding was performed with and without 40% mouse serum to evaluate the serum effect on binding to KDR-transfected cells. After washing away the unbound compound, the cells in each well were lysed with 0.5 N NaOH and the lysates were counted with a gamma counter.
# [5] = target: T1, KDR (VEGFR-2, Flk-1), full-length …; test: competition with 125I-VEGF for specific binding to KDR-transfected 293H cells, % inhibition
# Description: as §1
# [6] = target: T1, KDR (VEGFR-2, Flk-1), full-length …; test: competition: free dimer against P13-conjugated microbubbles on KDR-transfected 293H cells, % binding
# Protocol: (§2) At the end of the incubation, the transfected cells were rinsed three times in PBS and examined under a microscope. Binding of the conjugated bubbles was quantified and expressed as a percentage of the surface covered by the targeted microbubbles.
# [7] = target: T1, KDR (VEGFR-2, Flk-1), full-length …; test: competition: corresponding free peptide against D23-conjugated microbubbles on KDR-transfected 293H cells, % binding (surface covered, relative)
# Protocol: (§3) The transfected cells were incubated with a suspension of peptide-conjugated microbubbles in presence or absence of the corresponding free peptide (between 100 μM to 3 nM). Competition was also performed using a non-binding control peptide as a competing compound. At the end of the incubation, the transfected cells were rinsed three times in PBS and examined under a microscope. Binding of the conjugated bubbles was quantified and expressed as a percent of the surface covered by the targeted microbubbles.
# [8] = target: T1, KDR (VEGFR-2, Flk-1), full-length …; test: competition: corresponding free peptide against P12-conjugated microbubbles on KDR-transfected 293H cells, % binding (surface covered, relative)
# Protocol: as §3
# [9] = target: T1, KDR (VEGFR-2, Flk-1), full-length …; test: P13-conjugated microbubbles on KDR-transfected 293H cells in the presence of rising free dimer (f5), % binding
# Protocol: as §2
# [10] = target: T1, KDR (VEGFR-2, Flk-1), full-length …; test: binding of the 99mTc-labeled scrambled dimer (D18 by legend paragraph 74; name box empty) to KDR- and mock-transfected 293H cells with and without 40% mouse serum, bound CPM
# Protocol: Cells were used 24 h after transfection, and to prepare the cells for the assay, they were washed 1× with 100 μL of room temperature opti-MEMI with 0.1% HSA. […] Each dilution was added to three separate wells of mock and KDR-transfected cells. After incubating at room temperature for 1 h, the plates were washed 5 times with 100 μL of cold binding buffer (opti-MEMI with 0.1% HSA). 100 μL of solubilizing solution (0.5 N NaOH) was added to each well, and the plates were incubated at 37° C. for 10 minutes. The solubilizing solution in each well was mixed by pipeting up and down, and transferred to 1.2 mL tubes. Each well was washed once with 100 μL of solubilizing solution and the washes were added to the corresponding 1.2 mL tube.
# [11] = target: T2, murine KDR-Fc (recombinant, R&D Systems #443-KD-050) (murine, UniProt P35918 20-762); test: SPR (BIAcore), murine KDR-Fc 5000 RU; KD1 = kd1/ka1
# T2 construct: Bought; also called rmKDR-Fc; recombinant murine KDR-Fc; not shown: Ig Fc region of the bought chimera
# T2 sequence (P35918 20-762): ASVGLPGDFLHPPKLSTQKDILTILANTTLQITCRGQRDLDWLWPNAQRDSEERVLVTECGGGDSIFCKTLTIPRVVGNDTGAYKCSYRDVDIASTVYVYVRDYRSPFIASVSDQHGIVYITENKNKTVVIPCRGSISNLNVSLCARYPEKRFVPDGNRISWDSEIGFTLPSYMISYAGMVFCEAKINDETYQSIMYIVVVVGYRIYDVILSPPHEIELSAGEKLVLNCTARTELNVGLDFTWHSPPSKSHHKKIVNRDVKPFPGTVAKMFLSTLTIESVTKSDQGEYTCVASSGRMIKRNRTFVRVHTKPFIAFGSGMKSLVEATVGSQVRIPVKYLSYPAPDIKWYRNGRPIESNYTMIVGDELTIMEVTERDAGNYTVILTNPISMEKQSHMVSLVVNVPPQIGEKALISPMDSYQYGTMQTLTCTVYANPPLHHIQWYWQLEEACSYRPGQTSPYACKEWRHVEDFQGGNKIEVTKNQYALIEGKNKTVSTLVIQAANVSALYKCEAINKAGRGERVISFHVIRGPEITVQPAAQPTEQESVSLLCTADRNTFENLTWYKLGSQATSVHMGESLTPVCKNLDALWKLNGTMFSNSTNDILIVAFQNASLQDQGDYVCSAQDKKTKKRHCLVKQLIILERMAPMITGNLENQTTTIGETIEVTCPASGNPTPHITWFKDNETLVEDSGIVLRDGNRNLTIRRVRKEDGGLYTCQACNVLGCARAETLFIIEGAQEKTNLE
# [12] = target: T2, murine KDR-Fc (recombinant, R&D Systems …); test: SPR (BIAcore), murine KDR-Fc 2700 RU; KD1 = kd1/ka1
# Protocol: All samples were injected in duplicate. For association, peptides were injected at 30 μL/min for 3 minutes using the kinject program. Following a 10 minute dissociation, any remaining peptide was stripped from the rmKDR-Fc surface with a quickinject of 50 mM NaOH+1M NaCl for 12s at 75 μL/min.
# Sensorgrams were analyzed using the simultaneous ka/kd fitting program in the BIAevaluation software 3.1.
# [13] = target: T3, KDR-Fc (chimeric fusion of Ig Fc region with human KDR, R&D Systems #357-KD-050) (human, UniProt P35968 20-764); test: fluorescence polarisation against KDR-Fc
# T3 construct: Bought; also called KDR Fc fusion; not shown: Ig Fc region of the bought chimera
# T3 sequence (P35968 20-764, stated change not applied): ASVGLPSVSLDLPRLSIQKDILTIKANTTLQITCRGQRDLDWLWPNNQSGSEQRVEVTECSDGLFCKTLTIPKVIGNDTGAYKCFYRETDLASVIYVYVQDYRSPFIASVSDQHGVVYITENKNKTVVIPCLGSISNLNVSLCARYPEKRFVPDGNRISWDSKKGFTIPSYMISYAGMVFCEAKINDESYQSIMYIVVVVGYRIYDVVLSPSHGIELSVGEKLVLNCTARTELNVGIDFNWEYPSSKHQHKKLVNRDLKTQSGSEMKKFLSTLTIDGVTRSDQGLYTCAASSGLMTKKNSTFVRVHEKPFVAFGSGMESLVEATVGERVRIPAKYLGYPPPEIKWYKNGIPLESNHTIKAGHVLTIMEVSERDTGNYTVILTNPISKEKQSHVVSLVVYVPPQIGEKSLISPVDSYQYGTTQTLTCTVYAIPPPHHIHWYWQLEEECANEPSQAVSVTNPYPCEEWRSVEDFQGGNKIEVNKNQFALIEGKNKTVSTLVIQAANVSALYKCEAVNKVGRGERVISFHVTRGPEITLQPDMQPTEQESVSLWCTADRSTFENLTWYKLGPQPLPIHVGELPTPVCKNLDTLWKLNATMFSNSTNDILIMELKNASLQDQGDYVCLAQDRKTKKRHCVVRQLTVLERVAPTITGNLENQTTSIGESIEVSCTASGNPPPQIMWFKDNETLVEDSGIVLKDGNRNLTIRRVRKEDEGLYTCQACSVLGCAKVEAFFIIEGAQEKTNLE
# [14] = target: T1, KDR (VEGFR-2, Flk-1), full-length …; test: displacement of P12-XB/streptavidin-HRP complex (5.5 nM) from KDR-expressing cells
# [15] = target: T1, KDR (VEGFR-2, Flk-1), full-length …; test: as above; remark: listed apart in the source
binder,measurement,setting,value
Ac-AQGDYVYWEIIELTGATDHTPPGGGK-NH2 [P11-D],VEGF-induced KDR phosphorylation in HUVECs (immunoblot),[1],≥ 50 % inhibition at 10 µM
B1,IC50 in the activation assay against that of D2,[1],≥ 100 fold lower than D2
Ac-AGWIECYHPDGICYHFGTGGGK-NH2 (disulfide 6-13 (inferred)) [P2-D],VEGF-induced KDR phosphorylation in HUVECs (immunoblot),[1],≥ 50 % inhibition at 10 µM
B2,"IC50, VEGF-induced KDR phosphorylation in HUVECs",[1],100 nM
same,% inhibition of 125I-VEGF binding at 0.3 µM,[2],81%
same,% inhibition of 125I-VEGF binding at 30 µM,[2],104%
Ac-GDSRVCWEDSWGGEVCFRYDPGGGK-NH2 (disulfide 6-16 (inferred)) [P6-D],"IC50, VEGF-induced KDR phosphorylation in HUVECs",[1],1000 nM
same,VEGF-induced KDR phosphorylation in HUVECs (immunoblot),[1],≥ 50 % inhibition at 10 µM
Ac-AGWLECYAEFGHCYNFGTGGGK-NH2 (disulfide 6-13 (inferred)) [P3-D],VEGF-induced KDR phosphorylation in HUVECs (immunoblot),[1],≥ 50 % inhibition at 10 µM
B3,"IC50, VEGF-induced migration of HUVECs",[1],5 nM
B4,"IC50, VEGF-induced migration of HUVECs",[1],~250 nM
Ac-GDWWECK(ivDde′)REEYRNTTWCAWADPGGGK-NH2 (disulfide 6-17 (inferred)) [P7-E],VEGF-induced KDR phosphorylation in HUVECs (immunoblot),[1],≥ 50 % inhibition at 10 µM
Ac-GDPDTCTMWGDSGRWYCFPADPGGGK-NH2 (disulfide 6-17 (inferred)) [P8-D],VEGF-induced KDR phosphorylation in HUVECs (immunoblot),[1],≥ 50 % inhibition at 10 µM
Ac-AQEPEGYAYWEVITLYHEEDGDGGK-NH2 [P9-D],VEGF-induced KDR phosphorylation in HUVECs (immunoblot),[1],≥ 50 % inhibition at 10 µM
Ac-AQAFPRFGGDDYWIQQYLRYTDGGK-NH2 [P10-D],VEGF-induced KDR phosphorylation in HUVECs (immunoblot),[1],≥ 50 % inhibition at 10 µM
B5,binding result,[3],binds
B6,binding result,[3],binds
Ac-AQDWYYDEILSMADQLRHAFLSGG-NH2 [P13-D],binding result,[3],binds
B7,binding result,[4],binds
B8,binding result,[5],binds
B9,IC50 (read off the curve),[6],~20 nM
same,IC50 (read off the curve),[7],~30 nM
B10,binding result,[8],binds
AQDWYYDEILSMADQLRHAFLSGG (also: conjugated to microbubbles) [P13 conjugated to microbubbles],binding result,[9],binds
B11,binding result,[10],no binding (tested: 10.0 uCi/mL)
Ac-AGPTWCEDDWYYCWLFGTGGGK-NH2 (disulfide 6-13; also: fluorescein label (site not given here)) [Fluorescein labeled P12-G],Kd,[11],33.6 nM
same,Kd,[12],36.4 nM
AGDSWCSTEYTYCEMIGT (disulfide 6-13; not fully specified) [P4],Kd,[13],> 2000 nM
Ac-DWYYGGGK-NH2 [F1],IC50,[14],850 nM
B12,IC50,[15],108 nM
GDSRVCWEDSWGGEVCFRYDP (disulfide 6-16 (inferred)) [P6],% inhibition of 125I-VEGF binding at 0.3 µM,[2],52.3%
same,% inhibition of 125I-VEGF binding at 30 µM,[2],96.3%
